Laboratory results reported in patent US20150276760A1 (INSERM INSTITUT NATIONAL DE LA SANTE ET DE LA RECHERCHE …, published 2015).

Columns and labels:
Test in all cases: Flag/HA immunopurification of MAML1-F/H from SupT1 nuclear extracts, DMSO or GSI (500 nM, 8 hours), western blot (FIG. 2D)
PB1 = target: T1, PB1 (human, UniProt Q86U86 1-1689, limits assumed)
T1 construct: also called PBAF subunit PB1

PHF8 = target: T2, PHF8 (human, UniProt Q9UPP1 1-1060, limits assumed)
T2 construct: also called endogenous PHF8; histone demethylase PHF8

AF4p12 = target: T3, AF4p12 (human, UniProt O94915 2-3013)
T3 construct: also called FRYL

LSD1 = LSD1 (human, UniProt O60341 1-852)
BRG1 = target: T4, BRG1 (human, UniProt P51532 1-1647)
T4 construct: also called endogenous BRG1; PBAF subunit BRG1

Measured: binding result

T1 sequence (Q86U86 whole entry): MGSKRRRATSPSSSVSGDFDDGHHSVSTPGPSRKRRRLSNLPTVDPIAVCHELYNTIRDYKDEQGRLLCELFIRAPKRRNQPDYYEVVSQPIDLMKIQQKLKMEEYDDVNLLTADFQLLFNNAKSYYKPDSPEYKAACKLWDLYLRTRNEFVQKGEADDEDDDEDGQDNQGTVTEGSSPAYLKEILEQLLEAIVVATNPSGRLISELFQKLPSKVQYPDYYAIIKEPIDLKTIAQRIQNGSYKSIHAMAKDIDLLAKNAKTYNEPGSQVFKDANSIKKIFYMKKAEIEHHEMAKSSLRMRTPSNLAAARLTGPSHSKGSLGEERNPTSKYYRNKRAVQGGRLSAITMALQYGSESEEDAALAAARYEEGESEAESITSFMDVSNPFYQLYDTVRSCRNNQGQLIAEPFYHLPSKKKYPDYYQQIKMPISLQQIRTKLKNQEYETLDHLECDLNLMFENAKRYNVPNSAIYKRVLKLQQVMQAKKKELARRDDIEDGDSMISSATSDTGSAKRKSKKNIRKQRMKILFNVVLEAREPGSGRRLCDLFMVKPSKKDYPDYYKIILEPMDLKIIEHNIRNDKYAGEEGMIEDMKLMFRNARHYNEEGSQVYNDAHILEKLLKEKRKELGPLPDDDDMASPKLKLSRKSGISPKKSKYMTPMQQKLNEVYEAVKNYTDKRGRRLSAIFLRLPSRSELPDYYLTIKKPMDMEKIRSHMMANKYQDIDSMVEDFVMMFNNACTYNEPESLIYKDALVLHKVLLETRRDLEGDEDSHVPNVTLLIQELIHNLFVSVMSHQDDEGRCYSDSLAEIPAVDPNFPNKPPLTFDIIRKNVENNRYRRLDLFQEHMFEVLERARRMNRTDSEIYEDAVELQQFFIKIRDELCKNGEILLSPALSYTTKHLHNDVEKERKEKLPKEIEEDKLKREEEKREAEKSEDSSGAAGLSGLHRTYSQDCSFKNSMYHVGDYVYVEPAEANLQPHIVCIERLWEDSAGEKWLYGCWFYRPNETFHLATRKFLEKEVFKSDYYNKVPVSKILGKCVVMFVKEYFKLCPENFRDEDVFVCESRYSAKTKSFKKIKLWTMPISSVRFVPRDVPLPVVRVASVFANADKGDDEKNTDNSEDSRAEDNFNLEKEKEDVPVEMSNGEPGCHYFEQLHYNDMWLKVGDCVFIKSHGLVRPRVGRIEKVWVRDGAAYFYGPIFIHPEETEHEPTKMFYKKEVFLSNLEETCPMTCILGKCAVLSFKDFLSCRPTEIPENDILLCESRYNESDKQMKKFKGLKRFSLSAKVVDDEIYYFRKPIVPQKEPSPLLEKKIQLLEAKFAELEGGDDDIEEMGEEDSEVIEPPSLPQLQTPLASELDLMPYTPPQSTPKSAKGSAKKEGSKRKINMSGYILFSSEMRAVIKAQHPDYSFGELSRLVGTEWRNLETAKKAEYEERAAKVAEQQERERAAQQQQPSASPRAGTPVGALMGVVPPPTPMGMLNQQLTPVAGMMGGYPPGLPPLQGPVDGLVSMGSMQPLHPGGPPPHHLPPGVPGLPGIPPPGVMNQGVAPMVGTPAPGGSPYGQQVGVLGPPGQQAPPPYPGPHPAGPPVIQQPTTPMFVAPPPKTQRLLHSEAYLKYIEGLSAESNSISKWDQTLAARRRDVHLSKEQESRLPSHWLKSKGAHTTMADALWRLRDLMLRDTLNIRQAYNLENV
T2 sequence (Q9UPP1 whole entry): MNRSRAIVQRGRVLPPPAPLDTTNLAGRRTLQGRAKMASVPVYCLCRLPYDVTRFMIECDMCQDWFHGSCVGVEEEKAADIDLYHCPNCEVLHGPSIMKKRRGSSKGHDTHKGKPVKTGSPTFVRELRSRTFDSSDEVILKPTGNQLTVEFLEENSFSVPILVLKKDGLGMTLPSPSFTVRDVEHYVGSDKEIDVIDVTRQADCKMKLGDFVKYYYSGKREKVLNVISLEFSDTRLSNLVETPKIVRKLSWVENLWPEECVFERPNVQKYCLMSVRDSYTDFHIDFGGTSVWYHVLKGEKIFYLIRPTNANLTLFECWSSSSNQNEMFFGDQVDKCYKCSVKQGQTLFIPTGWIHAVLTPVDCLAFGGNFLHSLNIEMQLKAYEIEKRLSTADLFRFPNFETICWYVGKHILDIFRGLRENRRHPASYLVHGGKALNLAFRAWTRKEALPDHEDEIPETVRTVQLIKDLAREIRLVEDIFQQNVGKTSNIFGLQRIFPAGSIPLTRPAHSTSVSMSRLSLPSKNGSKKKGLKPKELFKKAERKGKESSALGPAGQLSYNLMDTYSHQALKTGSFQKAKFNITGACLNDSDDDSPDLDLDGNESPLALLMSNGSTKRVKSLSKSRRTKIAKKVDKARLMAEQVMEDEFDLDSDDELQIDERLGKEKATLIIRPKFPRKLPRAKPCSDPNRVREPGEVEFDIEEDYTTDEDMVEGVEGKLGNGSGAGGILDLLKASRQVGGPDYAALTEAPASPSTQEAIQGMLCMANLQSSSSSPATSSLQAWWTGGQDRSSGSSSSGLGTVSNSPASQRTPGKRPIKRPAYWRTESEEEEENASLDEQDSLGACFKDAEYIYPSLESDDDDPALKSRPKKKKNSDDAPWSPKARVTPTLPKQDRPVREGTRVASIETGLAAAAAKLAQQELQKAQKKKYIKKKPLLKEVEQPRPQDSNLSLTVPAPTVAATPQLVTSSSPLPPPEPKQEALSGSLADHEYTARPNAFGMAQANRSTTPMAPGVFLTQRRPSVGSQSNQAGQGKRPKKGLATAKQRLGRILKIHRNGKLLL
T4 sequence (P51532 whole entry): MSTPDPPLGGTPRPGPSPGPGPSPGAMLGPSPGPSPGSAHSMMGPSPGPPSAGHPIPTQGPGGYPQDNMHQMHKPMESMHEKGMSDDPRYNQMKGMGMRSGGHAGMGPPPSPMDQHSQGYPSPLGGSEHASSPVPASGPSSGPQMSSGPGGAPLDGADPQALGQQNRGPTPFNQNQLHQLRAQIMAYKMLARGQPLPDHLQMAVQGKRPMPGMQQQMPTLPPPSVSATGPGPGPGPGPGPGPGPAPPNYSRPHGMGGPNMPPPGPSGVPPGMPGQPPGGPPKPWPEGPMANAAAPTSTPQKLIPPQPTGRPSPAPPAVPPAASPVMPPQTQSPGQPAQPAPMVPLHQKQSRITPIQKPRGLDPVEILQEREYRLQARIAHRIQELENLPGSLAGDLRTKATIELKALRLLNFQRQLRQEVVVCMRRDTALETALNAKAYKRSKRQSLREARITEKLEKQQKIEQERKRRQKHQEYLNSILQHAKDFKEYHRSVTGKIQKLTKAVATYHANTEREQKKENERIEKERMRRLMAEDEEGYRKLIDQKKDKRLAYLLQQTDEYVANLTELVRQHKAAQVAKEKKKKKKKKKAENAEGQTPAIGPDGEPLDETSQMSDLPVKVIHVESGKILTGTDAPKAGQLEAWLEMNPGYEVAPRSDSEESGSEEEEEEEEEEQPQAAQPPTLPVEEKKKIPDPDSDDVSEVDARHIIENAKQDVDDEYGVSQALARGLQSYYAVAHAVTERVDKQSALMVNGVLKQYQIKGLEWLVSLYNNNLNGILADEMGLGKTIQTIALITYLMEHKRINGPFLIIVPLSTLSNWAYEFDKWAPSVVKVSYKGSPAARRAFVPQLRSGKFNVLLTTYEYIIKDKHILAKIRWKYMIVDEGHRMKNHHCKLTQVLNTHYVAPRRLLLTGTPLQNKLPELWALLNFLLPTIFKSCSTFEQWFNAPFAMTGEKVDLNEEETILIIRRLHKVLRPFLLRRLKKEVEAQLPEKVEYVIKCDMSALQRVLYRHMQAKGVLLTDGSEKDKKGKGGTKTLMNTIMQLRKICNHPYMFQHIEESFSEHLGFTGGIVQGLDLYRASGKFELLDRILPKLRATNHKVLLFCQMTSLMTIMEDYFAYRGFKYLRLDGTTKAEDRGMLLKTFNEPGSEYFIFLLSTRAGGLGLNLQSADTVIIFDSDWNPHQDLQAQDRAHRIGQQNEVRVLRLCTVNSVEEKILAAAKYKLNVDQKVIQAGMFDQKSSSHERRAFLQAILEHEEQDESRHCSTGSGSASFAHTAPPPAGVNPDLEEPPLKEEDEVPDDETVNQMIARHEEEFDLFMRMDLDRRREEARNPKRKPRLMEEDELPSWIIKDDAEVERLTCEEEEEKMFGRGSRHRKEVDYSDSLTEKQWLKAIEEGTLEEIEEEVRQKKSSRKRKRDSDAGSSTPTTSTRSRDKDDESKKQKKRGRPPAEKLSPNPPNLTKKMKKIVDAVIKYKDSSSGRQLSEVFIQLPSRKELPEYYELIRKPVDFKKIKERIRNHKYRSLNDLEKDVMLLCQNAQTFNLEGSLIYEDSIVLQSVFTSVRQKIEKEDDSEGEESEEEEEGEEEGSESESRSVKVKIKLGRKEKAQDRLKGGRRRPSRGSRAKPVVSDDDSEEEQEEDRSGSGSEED

B1: Flag and HA-tagged MAML1 (MAML1-F/H) (other, human, UniProt Q92585 1-1016, looked up)
chain: MVLPTCPMAEFALPRHSAVMERLRRRIELCRRHHSTCEARYEAVSPERLELERQHTFALHQRCIQAKAKRAGKHRQPPAATAPAPAAPAPRLDAADGPEHGRPATHLHDTVKRNLDSATSPQNGDQQNGYGDLFPGHKKTRREAPLGVAISSNGLPPASPLGQSDKPSGADALQSSGKHSLGLDSLNKKRLADSSLHLNGGSNPSESFPLSLNKELKQEPVEDLPCMITGTVGSISQSNLMPDLNLNEQEWKELIEELNRSVPDEDMKDLFNEDFEEKKDPESSGSATQTPLAQDINIKTEFSPAAFEQEQLGSPQVRAGSAGQTFLGPSSAPVSTDSPSLGGSQTLFHTSGQPRADNPSPNLMPASAQAQNAQRALAGVVLPSQGPGGASELSSAHQLQQIAAKQKREQMLQNPQQATPAPAPGQMSTWQQTGPSHSSLDVPYPMEKPASPSSYKQDFTNSKLLMMPSVNKSSPRPGGPYLQPSHVNLLSHQPPSNLNQNSANNQGSVLDYGNTKPLSHYKADCGQGSPGSGQSKPALMAYLPQQLSHISHEQNSLFLMKPKPGNMPFRSLVPPGQEQNPSSVPVQAQATSVGTQPPAVSVASSHNSSPYLSSQQQAAVMKQHQLLLDQQKQREQQQKHLQQQQFLQRQQHLLAEQEKQQFQRHLTRPPPQYQDPTQGSFPQQVGQFTGSSAAVPGMNTLGPSNSSCPRVFPQAGNLMPMGPGHASVSSLPTNSGQQDRGVAQFPGSQNMPQSSLYGMASGITQIVAQPPPQATNGHAHIPRQTNVGQNTSVSAAYGQNSLGSSGLSQQHNKGTLNPGLTKPPVPRVSPAMGGQNSSWQHQGMPNLSGQTPGNSNVSPFTAASSFHMQQQAHLKMSSPQFSQAVPNRPMAPMSSAAAVGSLLPPVSAQQRTSAPAPAPPPTAPQQGLPGLSPAGPELGAFSQSPASQMGGRAGLHCTQAYPVRTAGQELPFAYSGQPGGSGLSSVAGHTDLIDSLLKNRTSEEWMSDLDDLLGSQ
notes: Stably expressed in SupT1; also called FLAG-HA tagged MAML1; not shown: Flag and HA tags (pOZ vector)
binds: all assays above
